The source of these data is patent US20130202608A1.

Common to all, as to assay: cell-based or functional assay
Experiment [1] has as its target hemagglutinin of A/Indonesia/CDC669/2006 (H5N1, clade 2.1) (influenza A virus A/Indonesia/CDC669/2006 (H5N1)).
The target of experiment [2] is hemagglutinin of A/Indonesia/TLL013/2006 (H5N1, clade 2.1) (influenza A virus A/Indonesia/TLL013/2006 (H5N1)).
The target in experiment [3] is hemagglutinin of A/chicken/Singapore/Sg02 H3N2 (influenza A virus A/chicken/Singapore/Sg02 (H3N2)).
The target of experiment [4] is hemagglutinin of A/Indonesia/TLL014/2006 (H5N1, clade 2.1) (influenza A virus A/Indonesia/TLL014/2006 (H5N1)).
In experiment [5] the target is hemagglutinin of A/Common iora/Indonesia/F89/H7N1 (influenza A virus A/Common iora/Indonesia/F89 (H7N1)).

B1: murine monoclonal antibody 4C2 (antibody, V domains shown)
VH: QESGAELVRPGASVKLSCKDSGYTFTTYWMNWVKQRPEQGLEWIGRIDPYDSETHYNQKFKDKAILTVDKSSNTAYMQLSSLTSEDSAVYYCVRGGSTVAYFGVWGQG
VL: MTQSPSSMSVSLGDTVSITCHASQDISGHIGWLQQKPGKSFKGLIYHGTNLEDGVPSRFSGSGSGADFSLTISSLESEDFADYYCVQYVQFPWTFGGGTK
With B1, the HI titer (titer (mAb at 1 mg/ml)) in experiment [1] was 512; in experiment [2], 512; in experiment [3], < 4; in experiment [4], 512; in experiment [5], < 4. Further, the Microneutralization titers against H5N1 strains in experiment [1] was 320; in experiment [2], 640; in experiment [3], < 10; in experiment [4], 320; in experiment [5], < 10.
